Results taken from US10370642B2, “Hematopoietic progenitor cell populations having affinity for E-selectin / L-selectin” (priority 2000, dated 2019).

Assays:
[1] = target: T1, L-selectin (Rattus norvegicus, UniProt P30836); assay: Stamper-Woodruff assay, lymphocyte adherence to immunoprecipitated CD44 and PSGL-1; assay type: cell-based; conditions: 80 rpm
T1 construct: L-selectin naturally expressed on leukocytes; endogenous in cells; host or cells: lymphocytes (rat thoracic duct lymphocytes; human PBMC also prepared)
T1 sequence (P30836 39-372): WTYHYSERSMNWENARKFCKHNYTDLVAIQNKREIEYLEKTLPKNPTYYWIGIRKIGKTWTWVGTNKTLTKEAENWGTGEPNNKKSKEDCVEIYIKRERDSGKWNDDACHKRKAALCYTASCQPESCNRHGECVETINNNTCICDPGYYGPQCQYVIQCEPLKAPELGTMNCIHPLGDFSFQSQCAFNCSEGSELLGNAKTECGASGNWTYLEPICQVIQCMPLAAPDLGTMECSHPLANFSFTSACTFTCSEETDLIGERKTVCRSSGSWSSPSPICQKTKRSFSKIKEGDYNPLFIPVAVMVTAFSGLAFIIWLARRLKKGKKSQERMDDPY
Method: (§1) These protein spots were then fixed in 3% glutaraldehyde, unreactive aldehyde groups were blocked in 0.2M lysine and slides were kept in RPMI-1640 without NaBicarbonate/2% FBS until ready for testing. Lymphocytes (10^7/ml RPMI-1640 without NaBicarbonate/5% FBS) were overlayed onto these fixed immunoprecipitates and incubated on an orbital shaker at 80 rpm for 30 min. at 4° C. The number of adherent lymphocytes was quantified by light microscopy using an ocular grid under 100× magnification (a minimum of 5 fields/slide, 2 slides/experiment, and 3 separate experiments). Data were presented as the mean number of bound lymphocytes±standard deviation. KG1a CD34 and L-selectin control immunoprecipitates were also tested in this manner. To verify the dependence for sialic acid, glutaraldehyde-fixed spots were treated with Vibrio cholerae neuraminidase (0.1 U/ml RPMI-1640 without NaBicarbonate/2% FBS for lhr at 37° C.).
(§2) Immunoaffinity purified material (0.75-3 μg/spot) was spotted onto glass slides for analyses in the Stamper-Woodruff assay (See below for assay description). For autoradiographic analysis of immunoprecipitated [^35S]-methionine-radiolabeled CD44 and PSGL-1, immunoprecipitates were spotted onto glass slides, allowed to dry and exposed Kodak BioMax-MR film for 12 h at −80° C. Densitometric analysis (optical density) of the autoradiograms was performed with a Hewlett-Packard Scanj et 5200C scanner and NIH Image processing and analysis program.

[2] = system: L-selectin; assay: as above; assay type: cell-based, rat; conditions: equimolar amounts (0.75 μg CD44, 1 μg PSGL-1); 80 rpm
Method: as §1, §2

[3] = target: T2, E-selectin (Homo sapiens, UniProt P16581); assay: Blot rolling assay with CHO-E cells; assay type: cell-based; conditions: immunoprecipitated CD44 on Western blot; 3.8 dynes/cm^2
T2 construct: stably transfected with full-length cDNA encoding human E-selectin; expressed in transfected cells
T2 sequence (P16581 22-610): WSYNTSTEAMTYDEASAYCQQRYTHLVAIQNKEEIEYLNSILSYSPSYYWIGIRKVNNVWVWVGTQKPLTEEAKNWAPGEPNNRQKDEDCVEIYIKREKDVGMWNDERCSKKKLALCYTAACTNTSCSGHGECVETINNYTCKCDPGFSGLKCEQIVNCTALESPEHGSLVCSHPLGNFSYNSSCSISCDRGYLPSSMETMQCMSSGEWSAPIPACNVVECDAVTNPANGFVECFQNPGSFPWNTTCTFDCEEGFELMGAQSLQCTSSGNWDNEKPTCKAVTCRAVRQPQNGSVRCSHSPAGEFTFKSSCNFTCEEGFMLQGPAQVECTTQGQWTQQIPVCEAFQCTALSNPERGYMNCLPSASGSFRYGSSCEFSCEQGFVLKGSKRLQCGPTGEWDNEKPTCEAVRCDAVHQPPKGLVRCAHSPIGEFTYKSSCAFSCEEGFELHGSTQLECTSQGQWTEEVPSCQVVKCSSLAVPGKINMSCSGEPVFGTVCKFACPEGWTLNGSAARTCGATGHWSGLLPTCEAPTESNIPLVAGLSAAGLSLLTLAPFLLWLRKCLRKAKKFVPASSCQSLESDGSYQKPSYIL
Method: The blot rolling assay was performed as previously described (Dimitroff et al., 2000). Briefly, CHO-E, CHO—P or CHO-Mock transfectants were isolated as described above, washed twice in HBSS and suspended at 10^7/ml in HBSS/10 mM HEPES/2mMCaCl2 (H/H/Ca++)/10% glycerol. Western blots of HPC membrane preparations stained with HECA-452 were rendered transparent by incubating them in H/H/Ca++/10% glycerol. The blots were then placed in the parallel-plate flow chamber, and CHO transfectants (2×10^6/ml) were perfused into the chamber. After allowing the cells to come in contact with the blotting membrane, the flow rate was adjusted to exert a shear stress of 3.8 dynes/cm^2. The viscosity of 10% glycerol adhesion assay medium was considered in the calculation of shear stress values. The number of cells rolling on and between each immunostained banding region was quantified under 100× magnification within each field of view on the video monitor using molecular weight markers (Kaleidoscope Molecular Weight Markers, Bio-Rad Lab.; See Blue® from Novex, Inc.) as guides to help align and visualize the apparent molecular weights of the proteins of interest. A minimum of 3 experiments was performed and results were expressed as the mean±SD of cell rolling/field at 100× magnification.

## KG1a CD44: glycoform of CD44 with HECA-452 reactive sialylated, fucosylated N-glycans, immunoprecipitated from KG1a cells with Hermes-1
[1]; 0.75 μg/spot (PSGL-1 1 μg/spot), 4° C., 100× mag.
  Mean Number of Bound Lymphocytes: 357.8
[1]; p<0.001
  fold higher mean number of lymphocytes bound to CD44 than to PSGL-1: 3 fold
[2]
  fold greater lymphocyte binding compared with PSGL-1: up to 10 fold
[3]
  E-selectin ligand activity (CHO-E cell rolling) in blot rolling assay: possessed E-selectin ligand activity
